B1: KAT8 regulatory NSL complex subunit 2, residues 28 to 91; numbered along this chain, Q9H9L4 (parent)
chain: CAFTHRPCSHPRLEGQEFCIKHILEDKNAPFKQCSYISTKNGKRCPNAAPKPEKKDGVSFCAEH

± gives the uncertainty stated by the source.

In this series the parent is B1. Briefly: abundance fitness (aPCA) (normalised: wild type 0, dead -1); higher = more abundant; growth selection in yeast, the domain comes from the species named. To be noted: Homo sapiens.
Turning to CAFTHRPCSHPRLEGQEFCIKHILEDKNAPFKQCSYISTKNGKRCPNAAPKPEKKDGVSFCVEH [A62V], the abundance fitness is -0.059 ± 0.051.

As for CAFTHRPCSHPRLEGQEFCIKHILEDKNAPFKQCSYISTKNGKRCPNAAPKPEKKDGVSFCYEH [A62Y], the abundance fitness was -0.198 ± 0.085. Under CAFTHRPCSHPRLEGQEFCIKHILEDKNAPFKQCSYISTKNGKRCPNAAPKPEKKDGVSFCSEH [A62S] stands -0.055 ± 0.044; under CAFTHRPCSHPRLEGQEFCIKHILEDKNAPFKQCSYISTKNGKRCPNAAPKPEKKDGVSFCWEH [A62W], -0.088 ± 0.031. Under CAFTHRPCSHPRLEGQEFCIKHILEDKNAPFKQCSYISTKNGKRCPNAAPKPEKKDGVSFCAEY [H64Y] stands -0.781 ± 0.12; under CAFTHRPCSHPRLEGQEFCIKHILEDKNAPFKQCSYISTKNGKRCPNAAPKPEKKDGVSFCAEE [H64E], -0.877 ± 0.32; under CAFTHRPCSHPRLEGQEFCIKHILEDKNAPFKQCSYISTKNGKRCPNAAPKPEKKDGVSFCAEN [H64N], -0.441 ± 0.082.

Turning to CAFTHRPCSHPRLEGQEFCIKHILEDKNAPFKQCSYISTKNGKRCPNAAPKPEKKDGVSFCAER [H64R], the abundance fitness is -0.427 ± 0.11. Under CAFTHRPCSHPRLEGQEFCIKHILEDKNAPFKQCSYISTKNGKRCPNAAPKPEKKDGVSFCAES [H64S] stands -0.315 ± 0.15. With CAFTHRPCSHPRLEGQEFCIKHILEDKNAPFKQCSYISTKNGKRCPNAAPKPEKKDGVSFCAEP [H64P], the abundance fitness is -0.401 ± 0.13. For CAFTHRPCSHPRLEGQEFCIKHILEDKNAPFKQCSYISTKNGKRCPNAAPKPEKKDGVSFCAEQ [H64Q], the abundance fitness is -0.463 ± 0.21.

CAFTHRPCSHPRLEGQEFCIKHILEDKNAPFKQCSYISTKNGKRCPNAAPKPEKKDGVSFCAEL [H64L]: the abundance fitness is -0.602 ± 0.081. Under CAFTHRPCSHPRLEGQEFCIKHILEDKNAPFKQCSYISTKNGKRCPNAAPKPEKKDGVSFCAET [H64T] stands -0.33 ± 0.14; under CAFTHRPCSHPRLEGQEFCIKHILEDKNAPFKQCSYISTKNGKRCPNAAPKPEKKDGVSFCAEI [H64I], -1.02 ± 0.32; under CAFTHRPCSHPRLEGQEFCIKHILEDKNAPFKQCSYISTKNGKRCPNAAPKPEKKDGVSFCAEM [H64M], -0.333 ± 0.22. For the variant CAFTHRPCSHPRLEGQEFCIKHILEDKNAPFKQCSYISTKNGKRCPNAAPKPEKKDGVSFCAEW [H64W], the abundance fitness is -1.55 ± 0.46.

With CAFTHRPCSHPRLEGQEFCIKHILEDKNAPFKQCSYISTKNGKRCPNAAPKPEKKDGVSFCAED [H64D], the abundance fitness is -0.324 ± 0.11. The same measure for CAFTHRPCSHPRLEGQEFCIKHILEDKNAPFKQCSYISTKNGKRCPNAAPKPEKKDGVSFCAEV [H64V]: -0.534 ± 0.12; for CAFTHRPCSHPRLEGQEFCIKHILEDKNAPFKQCSYISTKNGKRCPNAAPKPEKKDGVSFCAEA [H64A]: -0.582 ± 0.23; for CAFTHRPCSHPRLEGQEFCIKHILEDKNAPFKQCSYISTKNGKRCPNAAPKPEKKDGVSFCAEK [H64K]: -0.509 ± 0.34. The same measure for CAFTHRPCSHPRLEGQEFCIKHILEDKNAPFKQCSYISTKNGKRCPNAAPKPEKKDGVSFCAAH [E63A]: -0.064 ± 0.063; for CAFTHRPCSHPRLEGQEFCIKHILEDKNAPFKQCSYISTKNGKRCPNAAPKPEKKDGVSFCATH [E63T]: -0.054 ± 0.065; for CAFTHRPCSHPRLEGQEFCIKHILEDKNAPFKQCSYISTKNGKRCPNAAPKPEKKDGVSFCAYH [E63Y]: -0.138 ± 0.08.

CAFTHRPCSHPRLEGQEFCIKHILEDKNAPFKQCSYISTKNGKRCPNAAPKPEKKDGVSFCAGH [E63G]: the abundance fitness is -0.034 ± 0.05. The same measure for CAFTHRPCSHPRLEGQEFCIKHILEDKNAPFKQCSYISTKNGKRCPNAAPKPEKKDGVSFCASH [E63S]: -0.093 ± 0.047; for CAFTHRPCSHPRLEGQEFCIKHILEDKNAPFKQCSYISTKNGKRCPNAAPKPEKKDGVSFCAQH [E63Q]: -0.175 ± 0.091.

CAFTHRPCSHPRLEGQEFCIKHILEDKNAPFKQCSYISTKNGKRCPNAAPKPEKKDGVSFCAHH [E63H]: the abundance fitness was determined as 0.136 ± 0.16. Turning to CAFTHRPCSHPRLEGQEFCIKHILEDKNAPFKQCSYISTKNGKRCPNAAPKPEKKDGVSFCAKH [E63K], the abundance fitness is -0.09 ± 0.085. On to CAFTHRPCSHPRLEGQEFCIKHILEDKNAPFKQCSYISTKNGKRCPNAAPKPEKKDGVSFCAPH [E63P], for which the abundance fitness is -0.188 ± 0.091. Under CAFTHRPCSHPRLEGQEFCIKHILEDKNAPFKQCSYISTKNGKRCPNAAPKPEKKDGVSFCAVH [E63V] stands -0.175 ± 0.052; under CAFTHRPCSHPRLEGQEFCIKHILEDKNAPFKQCSYISTKNGKRCPNAAPKPEKKDGVSFCANH [E63N], -0.062 ± 0.094. The same measure for CAFTHRPCSHPRLEGQEFCIKHILEDKNAPFKQCSYISTKNGKRCPNAAPKPEKKDGVSFCARH [E63R]: -0.024 ± 0.047; for CAFTHRPCSHPRLEGQEFCIKHILEDKNAPFKQCSYISTKNGKRCPNAAPKPEKKDGVSFCALH [E63L]: -0.17 ± 0.047; for CAFTHRPCSHPRLEGQEFCIKHILEDKNAPFKQCSYISTKNGKRCPNAAPKPEKKDGVSFCADH [E63D]: 0.003 ± 0.06. Under CAFTHRPCSHPRLEGQEFCIKHILEDKNAPFKQCSYISTKNGKRCPNAAPKPEKKDGVSFCACH [E63C] stands -0.111 ± 0.077; under CAFTHRPCSHPRLEGQEFCIKHILEDKNAPFKQCSYISTKNGKRCPNAAPKPEKKDGVSFCAWH [E63W], -0.086 ± 0.057.

In the case of CAFTHRPCSHPRLEGQEFCIKHILEDKNAPFKQCSYISTKNGKRCPNAAPKPEKKDGVSFCAIH [E63I], the abundance fitness is -0.223 ± 0.1. Under CAFTHRPCSHPRLEGQEFCIKHILEDKNAPFKQCSYISTKNGKRCPNAAPKPEKKDGVSFCAFH [E63F] stands -0.107 ± 0.079.

Take CAFTHRPCSHPRLEGQEFCIKHILEDKNAPFKQCSYISTKNGKRCPNAAPKPEKKDGVSFCAMH [E63M]: the abundance fitness is -0.165 ± 0.075.

Source of the values: the Human Domainome abundance scans (Beltran et al. 2025).
